Experimental data from patent US20240270821A1, “GIP/GLP1/GCG TRI-RECEPTOR AGONISTS AND USES THEREOF” (priority 2023, published 2024).

T1: human GIP receptor (human) (UniProt P48546)
T1 sequence (looked up): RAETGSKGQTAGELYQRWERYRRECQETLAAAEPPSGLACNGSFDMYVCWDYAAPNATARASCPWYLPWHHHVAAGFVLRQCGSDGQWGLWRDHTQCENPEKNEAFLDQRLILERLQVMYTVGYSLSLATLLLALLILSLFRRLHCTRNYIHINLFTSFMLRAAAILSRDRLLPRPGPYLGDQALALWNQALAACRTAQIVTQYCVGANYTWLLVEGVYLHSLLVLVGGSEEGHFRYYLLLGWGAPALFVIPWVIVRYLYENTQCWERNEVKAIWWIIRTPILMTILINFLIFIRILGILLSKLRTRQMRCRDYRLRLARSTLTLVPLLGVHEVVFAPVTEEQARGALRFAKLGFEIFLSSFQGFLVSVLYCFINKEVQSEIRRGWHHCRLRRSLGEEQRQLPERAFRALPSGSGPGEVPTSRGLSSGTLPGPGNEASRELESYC


What was measured:
Assay in all cases: cell-based or functional assay
[1] = target: T1, human GIP receptor (human)
[2] = target: human glucagon receptor (human) (UniProt P47871)
human glucagon receptor (human), sequence (P47871 26-477): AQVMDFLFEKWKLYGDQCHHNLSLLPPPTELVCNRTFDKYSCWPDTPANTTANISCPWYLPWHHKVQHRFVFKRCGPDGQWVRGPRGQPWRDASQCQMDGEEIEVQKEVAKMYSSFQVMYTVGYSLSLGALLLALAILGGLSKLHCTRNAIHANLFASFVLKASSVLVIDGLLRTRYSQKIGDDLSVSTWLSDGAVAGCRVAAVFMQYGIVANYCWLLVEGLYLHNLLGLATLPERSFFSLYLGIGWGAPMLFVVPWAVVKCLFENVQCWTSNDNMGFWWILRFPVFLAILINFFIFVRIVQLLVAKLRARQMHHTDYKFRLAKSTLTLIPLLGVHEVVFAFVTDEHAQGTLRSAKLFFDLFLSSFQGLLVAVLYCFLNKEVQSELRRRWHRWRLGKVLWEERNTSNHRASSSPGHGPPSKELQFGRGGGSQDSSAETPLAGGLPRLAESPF

hGLP-1R = hGLP-1R (Homo sapiens, UniProt P43220)
hGLP-1R, sequence (P43220 24-463): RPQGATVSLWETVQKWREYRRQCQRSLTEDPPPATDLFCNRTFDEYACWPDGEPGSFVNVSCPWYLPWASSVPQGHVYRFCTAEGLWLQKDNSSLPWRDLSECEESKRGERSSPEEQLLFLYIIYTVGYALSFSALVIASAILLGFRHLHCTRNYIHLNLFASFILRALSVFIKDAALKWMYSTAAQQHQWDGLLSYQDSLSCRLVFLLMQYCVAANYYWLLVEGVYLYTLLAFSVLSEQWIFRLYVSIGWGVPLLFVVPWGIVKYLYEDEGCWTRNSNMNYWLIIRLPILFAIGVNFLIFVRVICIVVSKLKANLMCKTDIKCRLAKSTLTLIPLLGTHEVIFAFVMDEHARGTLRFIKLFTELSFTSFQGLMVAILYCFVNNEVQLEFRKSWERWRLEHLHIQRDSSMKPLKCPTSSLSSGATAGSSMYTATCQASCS

Row | Binder | cAMP Rel EC50 (1% HSA) [1] [nM] | cAMP Rel EC50 (1% HSA) [2] [nM] | cAMP Rel EC50 (1% HSA) (hGLP-1R) [nM] | Relative cAMP EC50 [1] [nM] | Relative cAMP EC50 [2] [nM] | Relative cAMP EC50 (hGLP-1R) [nM]
1 | YXQGTFTSDXSQXLDKKAQXAFIEYLIEXGPSSGAPPPSGSEE (acylated lysine γGlu-C18 diacid; non-natural residues; C-terminal amide; synthetic construct; SITE 2: note = 2-Aminoisobutyric Acid; SITE 10: note = 3-(4-Pyridyl)-L-alanine; SITE 13: note = alpha-methyl-leucine; SITE 17: note = Lysine is chemically modified through conjugation of the epsilon-amino group of the Lysine side chain with D-Glutamic acid-(gamma-Glu)-CO-(CH2)16) [Example 928] | 15.1 | 1090 | 604 | – | – | –
2 | YXQGTFTSDXSQXLDKKAQXAFIEYLIEXGPSSGAPPPSGSEE (acylated Lys e-γGlu-e-C18 diacid; non-natural residues; C-terminal amide; synthetic construct; SITE 2: note = 2-Aminoisobutyric Acid; SITE 10: note = 3-(4-Pyridyl)-L-alanine; SITE 13: note = alpha-methyl-leucine; SITE 17: note = Lysine is chemically modified through conjugation of the epsilon-amino group of the Lysine side chain with D-Glutamic acid-(gamma-Glu)-D-Glutamic) [Example 931] | 20.8 | 2300 | 878 | – | – | –
3 | YXQGTFTSDXSQXLDKKAQXAFIEYLIEXGPSSGAPPPSGSEE (acylated Lys γGlu-(e)2-C18 diacid; non-natural residues; C-terminal amide; synthetic construct; SITE 2: note = 2-Aminoisobutyric Acid; SITE 10: note = 3-(4-Pyridyl)-L-alanine; SITE 13: note = alpha-methyl-leucine; SITE 17: note = Lysine is chemically modified through conjugation of the epsilon-amino group of the Lysine side chain with (gamma-Glu)-(D-Glutamic acid)2-CO-(CH2)) [Example 930] | 19.9 | 1700 | 824 | – | – | –
4 | YXQGTFTSDXSQXLDKKAQXAFIEYLIEXGPSSGAPPPSGSEE (non-natural residues, γGlu-C18 diacid acyl on K, C-terminal amide; synthetic construct; SITE 2: note = 2-Aminoisobutyric Acid; SITE 10: note = 3-(4-Pyridyl)-L-alanine; SITE 13: note = alpha-methyl-leucine; SITE 17: note = Lysine is chemically modified through conjugation of the epsilon-amino group of the Lysine side chain with (D-Glutamic acid)2-(gamma-Glu)-CO-(CH2)) [Example 929] | 22.6 | 2690 | 593 | – | – | –
5 | YXQGTFTSDXSQXLDKKAQXAFIEYLIEXGPSSGAPPPSGSE (C-terminal amide; lysine acylated with γ-Glu-C18 diacid; synthetic construct; SITE 2: note = 2-Aminoisobutyric Acid; SITE 10: note = 3-(4-Pyridyl)-L-alanine; SITE 13: note = alpha-methyl-leucine; SITE 17: note = Lysine is chemically modified through conjugation of the epsilon-amino group of the Lysine side chain with D-Glutamic acid-(gamma-Glu)-CO-(CH2)16) [Example 924] | 15.7 | 910 | 402 | – | – | –
6 | YXQGTFTSDXSQXLDKKAQXAFIEYLIEXGPSSGAPPPSGSE (Aib, 4Pal, Me4Pal, alpha-methyl-Leu, lipidated Lys, amide; synthetic construct; SITE 2: note = 2-Aminoisobutyric Acid; SITE 10: note = 3-(4-Pyridyl)-L-alanine; SITE 13: note = alpha-methyl-leucine; SITE 17: note = Lysine is chemically modified through conjugation of the epsilon-amino group of the Lysine side chain with D-Glutamic acid-(gamma-Glu)-D-Glutamic) [Example 927] | 22.2 | 1210 | 584 | – | – | –
7 | YXQGTFTSDXSQXLDKKAQXAFIEYLIEXGPSSGAPPPSGSE (acylated lysine γGlu-C18 diacid; non-natural residues; C-terminal amide; synthetic construct; SITE 2: note = 2-Aminoisobutyric Acid; SITE 10: note = 3-(4-Pyridyl)-L-alanine; SITE 13: note = alpha-methyl-leucine; SITE 17: note = Lysine is chemically modified through conjugation of the epsilon-amino group of the Lysine side chain with (D-Glutamic acid)2-(gamma-Glu)-CO-(CH2)) [Example 925] | 23 | 2500 | 708 | – | – | –
8 | YXQGTFTSDXSQXLDKKAQXAFIEYLIEXGPSSGAPPPSGSE (γGlu-C18 diacid on Lys; non-natural residues; amide; synthetic construct; SITE 2: note = 2-Aminoisobutyric Acid; SITE 10: note = 3-(4-Pyridyl)-L-alanine; SITE 13: note = alpha-methyl-leucine; SITE 17: note = Lysine is chemically modified through conjugation of the epsilon-amino group of the Lysine side chain with (gamma-Glu)-(D-Glutamic acid)2-CO-(CH2)) [Example 926] | 13.5 | 1380 | 600 | – | – | –
9 | YXQGTFTSDXSKXLDKKAQXAFIEYLIEGGPSSGAPPPSGS (non-natural residues; lipidated Lys AEEA-γGlu-C18 diacid; C-term amide; synthetic construct; SITE 2: note = 2-Aminoisobutyric Acid; SITE 10: note = 3-(4-Pyridyl)-L-alanine; SITE 13: note = alpha-methyl-leucine; SITE 17: note = Lysine is chemically modified through conjugation of the epsilon-amino group of the Lysine side chain with (2-[2-(2-Amino-ethoxy)-ethoxy]-acetyl)) [Example 908] | 26.7 | 980 | 174 | 0.246 | 8.11 | 1.2
10 | YXQGTFTSDFSKXLDKKAQXAFIEXLIEXGPSSGAPPPSGS (non-natural residues, AEEA-γGlu-C18 diacid lysine acylation, C-terminal amide; synthetic construct; SITE 2: note = 2-Aminoisobutyric Acid; SITE 13: note = alpha-methyl-leucine; SITE 17: note = Lysine is chemically modified through conjugation of the epsilon-amino group of the Lysine side chain with (2-[2-(2-Amino-ethoxy)-ethoxy]-acetyl)-(gamma-Glu)-CO-(CH2) 16-CO2H; SITE 20: n) [Example 912] | 6.15 | 955 | 59.6 | – | – | –
11 | YXQGTFTSDXSQXLDKKAQXAFIEYLIEXGPSSGAPPPSEG (non-natural residues; lipidated Lys AEEA-γGlu-C18 diacid; synthetic construct; SITE 2: note = 2-Aminoisobutyric Acid; SITE 10: note = 3-(4-Pyridyl)-L-alanine; SITE 13: note = alpha-methyl-leucine; SITE 17: note = Lysine is chemically modified through conjugation of the epsilon-amino group of the Lysine side chain with (2-[2-(2-Amino-ethoxy)-ethoxy]-acetyl)) [Example 918] | 18 | 590 | 484 | – | – | –
12 | YXQGTFTSDXSKXLDKKAQXAFIEXLIEXGPSSGAPPPSGS (Aib, 4Pal, αMeL, Me4Pal; acylated Lys; C-terminal amide; synthetic construct; SITE 2: note = 2-Aminoisobutyric Acid; SITE 10: note = 3-(4-Pyridyl)-L-alanine; SITE 13: note = alpha-methyl-leucine; SITE 17: note = Lysine is chemically modified through conjugation of the epsilon-amino group of the Lysine side chain with (2-[2-(2-Amino-ethoxy)-ethoxy]-acetyl)) [Example 914] | 5.94 | 983 | 91.7 | – | – | –
13 | YXQGTFTSDXSQXLDKKAQXAFIEYLIEXGPSSGAPPPSGS (Aib, 4Pal, αMeL, Me4Pal; acylated Lys; C-terminal amide; synthetic construct; SITE 2: note = 2-Aminoisobutyric Acid; SITE 10: note = 3-(4-Pyridyl)-L-alanine; SITE 13: note = alpha-methyl-leucine; SITE 17: note = Lysine is chemically modified through conjugation of the epsilon-amino group of the Lysine side chain with (D-Glutamic acid)2-(gamma-Glu)-CO-(CH2)) [Example 921] | 12.4 | 2130 | 261 | – | – | –
14 | YXQGTFTSDXSQXLDXKAQXAFIEXLLEGGPSSGAPPPSGS (non-natural residues; Lys acylated C18 diacid; C-terminal amide; synthetic construct; SITE 2: note = 2-Aminoisobutyric Acid; SITE 10: note = 3-(4-Pyridyl)-L-alanine; SITE 13: note = alpha-methyl-leucine; SITE 16: note = L-ornithine; SITE 17: note = Lysine is chemically modified through conjugation of the epsilon-amino group of the Lysine side chain with (2-[2-(2-) [Example 932] | 25 | 513 | 249 | – | – | –
15 | YXQGTFTSDFSQXLDKKAQXAFIEXLIEXGPSSGAPPPSGS (non-natural residues; acylated Lys C18 diacid; C-term amide; synthetic construct; SITE 2: note = 2-Aminoisobutyric Acid; SITE 13: note = alpha-methyl-leucine; SITE 17: note = Lysine is chemically modified through conjugation of the epsilon-amino group of the Lysine side chain with (2-[2-(2-Amino-ethoxy)-ethoxy]-acetyl)-(gamma-Glu)-CO-(CH2) 16-CO2H; SITE 20: n) [Example 913] | 5.62 | 1140 | 258 | – | – | –
16 | YXQGTFTSDXSQXLDKKAQXAFIEYLIEXGPSSGAPPPSGS (Lys acylated γGlu-C18 diacid; non-natural residues; C-amide; synthetic construct; SITE 2: note = 2-Aminoisobutyric Acid; SITE 10: note = 3-(4-Pyridyl)-L-alanine; SITE 13: note = alpha-methyl-leucine; SITE 17: note = Lysine is chemically modified through conjugation of the epsilon-amino group of the Lysine side chain with (gamma-Glu)-(D-Glutamic acid)2-CO-(CH2)) [Example 922] | 6.39 | 1170 | 357 | – | – | –
17 | YXQGTFTSDXSQXLDKKAQXAFIEYLIEXGPSSGAPPPSGS (non-natural residues; C18 diacid-γGlu-e on Lys; C-terminal amide; synthetic construct; SITE 2: note = 2-Aminoisobutyric Acid; SITE 10: note = 3-(4-Pyridyl)-L-alanine; SITE 13: note = alpha-methyl-leucine; SITE 17: note = Lysine is chemically modified through conjugation of the epsilon-amino group of the Lysine side chain with D-Glutamic acid-(gamma-Glu)-CO-(CH2)16) [Example 920] | 9.05 | 1090 | 322 | – | – | –
18 | YXQGTFTSDXSQXLDKKAQXAFIEYLIEXGPSSGAPPPSEE (non-natural residues; lipidated Lys; D-Glu; synthetic construct; SITE 2: note = 2-Aminoisobutyric Acid; SITE 10: note = 3-(4-Pyridyl)-L-alanine; SITE 13: note = alpha-methyl-leucine; SITE 17: note = Lysine is chemically modified through conjugation of the epsilon-amino group of the Lysine side chain with (2-[2-(2-Amino-ethoxy)-ethoxy]-acetyl)) [Example 919] | 25.8 | 467 | 454 | – | – | –
19 | YXQGTFTSDXSQXLDXKAQXAFIEXLLEGGPSSGAPPPSGS (acylated Lys AEEA-γGlu-C18 diacid; non-natural residues; C-terminal amide; synthetic construct; SITE 2: note = 2-Aminoisobutyric Acid; SITE 10: note = 3-(4-Pyridyl)-L-alanine; SITE 13: note = alpha-methyl-leucine; SITE 16: note = L-ornithine; SITE 17: note = Lysine is chemically modified through conjugation of the epsilon-amino group of the Lysine side chain with (2-[2-(2-) [Example 911] | 26.6 | 2390 | 255 | – | – | –
20 | YXQGTFTSDXSQXLDKKAQXAFIEYLIEXGPSSGAPPPSGS (non-natural residues; C18 diacid-e-γGlu-e on Lys; C-terminal amide; synthetic construct; SITE 2: note = 2-Aminoisobutyric Acid; SITE 10: note = 3-(4-Pyridyl)-L-alanine; SITE 13: note = alpha-methyl-leucine; SITE 17: note = Lysine is chemically modified through conjugation of the epsilon-amino group of the Lysine side chain with D-Glutamic acid-(gamma-Glu)-D-Glutamic) [Example 923] | 18.5 | 1840 | 870 | – | – | –
21 | YXQGTFTSDXSRXLDKKAQXAFIEXLLEGGPSSGAPPPSGS (non-natural residues; lipidated Lys; C-terminal amide; synthetic construct; SITE 2: note = 2-Aminoisobutyric Acid; SITE 10: note = 3-(4-Pyridyl)-L-alanine; SITE 13: note = alpha-methyl-leucine; SITE 17: note = Lysine is chemically modified through conjugation of the epsilon-amino group of the Lysine side chain with (2-[2-(2-Amino-ethoxy)-ethoxy]-acetyl)) [Example 909] | 20.2 | 1740 | 243 | 0.121 | 6.82 | 1.72
22 | YXQGTFTSDXSKXLDKKAQXAFIEXLIEXGPSSGAPPPSGS (Aib, 4Pal, αMeL, Me4Pal; lysine acylated C18 diacid; amide; synthetic construct; SITE 2: note = 2-Aminoisobutyric Acid; SITE 10: note = 3-(4-Pyridyl)-L-alanine; SITE 13: note = alpha-methyl-leucine; SITE 17: note = Lysine is chemically modified through conjugation of the epsilon-amino group of the Lysine side chain with (2-[2-(2-Amino-ethoxy)-ethoxy]-acetyl)) [Example 916] | 4.78 | 158 | 166 | – | – | –
23 | YXQGTFTSDXSKXLDKKAQXAFIEYLIEXGPSSGAPPPSGS (non-natural residues, acylated Lys, C-terminal amide; synthetic construct; SITE 2: note = 2-Aminoisobutyric Acid; SITE 10: note = 3-(4-Pyridyl)-L-alanine; SITE 13: note = alpha-methyl-leucine; SITE 17: note = Lysine is chemically modified through conjugation of the epsilon-amino group of the Lysine side chain with (2-[2-(2-Amino-ethoxy)-ethoxy]-acetyl)) [Example 915] | 15.3 | 174 | 226 | – | – | –
24 | YXQGTFTSDXSQXLDKKAQXAFIEXLLEGGPSSGAPPPSGS (non-natural residues; lipidated Lys; C-terminal amide; synthetic construct; SITE 2: note = 2-Aminoisobutyric Acid; SITE 10: note = 3-(4-Pyridyl)-L-alanine; SITE 13: note = alpha-methyl-leucine; SITE 17: note = Lysine is chemically modified through conjugation of the epsilon-amino group of the Lysine side chain with (2-[2-(2-Amino-ethoxy)-ethoxy]-acetyl)) [Example 910] | 25.7 | 2640 | 239 | 0.111 | 9.76 | 1.49
